This is an account of results in patent US20140072563A1 (Regeneron, published 2014).

T1: ErbB3-mFc (human)
T1 construct: Dimeric soluble ErbB3; also called hErbB3.mFc
T1 chain: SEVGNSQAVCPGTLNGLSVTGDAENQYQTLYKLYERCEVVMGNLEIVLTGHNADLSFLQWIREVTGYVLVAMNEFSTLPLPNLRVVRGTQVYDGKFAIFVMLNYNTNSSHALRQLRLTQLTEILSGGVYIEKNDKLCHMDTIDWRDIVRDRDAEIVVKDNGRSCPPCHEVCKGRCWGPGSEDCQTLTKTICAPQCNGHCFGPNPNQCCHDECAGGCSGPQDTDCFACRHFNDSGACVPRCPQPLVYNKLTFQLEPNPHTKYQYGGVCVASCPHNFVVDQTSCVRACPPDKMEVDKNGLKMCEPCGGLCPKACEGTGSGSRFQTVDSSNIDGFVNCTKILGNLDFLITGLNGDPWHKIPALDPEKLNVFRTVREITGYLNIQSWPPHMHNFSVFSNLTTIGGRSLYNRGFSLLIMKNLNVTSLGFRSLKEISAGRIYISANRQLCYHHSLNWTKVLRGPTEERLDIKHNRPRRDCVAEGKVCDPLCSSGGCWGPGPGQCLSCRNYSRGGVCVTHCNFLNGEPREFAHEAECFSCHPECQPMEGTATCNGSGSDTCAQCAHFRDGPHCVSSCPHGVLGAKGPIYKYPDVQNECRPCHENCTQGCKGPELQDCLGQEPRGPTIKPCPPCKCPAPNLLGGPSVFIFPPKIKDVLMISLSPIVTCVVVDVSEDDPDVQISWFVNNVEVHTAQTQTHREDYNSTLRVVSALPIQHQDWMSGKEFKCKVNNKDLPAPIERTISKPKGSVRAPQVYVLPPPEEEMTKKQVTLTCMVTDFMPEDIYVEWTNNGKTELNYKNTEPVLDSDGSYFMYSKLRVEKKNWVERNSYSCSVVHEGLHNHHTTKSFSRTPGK

B1: H4H2290P (antibody, human IgG4, V domains shown)
VH: EVQLLESGGGLVQPGGSLRLSCVASGFTFSSFAMSWVRQAPGKGLEWVSVISGSGGSTNHADSVRGRFTISRDNSLNTVYLQMHSLRAEDTALYYCVKAETSSSYFYYGMDVWGQGTTVTVSS
VL: DIQLTQSPSFLSASVGDRVTITCWASQDISSYLAWYQQKPGKVPNLLIYGASSLQPGVPSRFSGSGSGTEFTLTISSLQPEDFATYYCQQLNNYPTFGGGTKLEIKR
notes: Human IgG4 Fc (prefix H4H)
B2: H2M1938N (antibody, mouse IgG2, V domains shown)
VH: EVQLVESGGGVVRPGGSLRLSCAASGFTFDDYGMSWVRQVPGKGLEWVSGLNWNGGITGYTDSVKGRFTISRDNAKNSLYLQMNSLRAEDTAFYHCARDSGDQDAFDIWGQGTMVTVSS
VL: QIVMTQSPATLSVSPGERATLSCRASQSITPYLAWYQQKPGQTPRLLIYGVSTRATGIPARFSGSGSGTEFTLTISSLQSEDFAVYYCQQYDNWYTFGQGTKLEIK
B3: H2M1930N (antibody, mouse IgG2, V domains shown)
VH: EVQLVESGGGLVKPGGSLRLSCVASGFTFSSYNMNWVRQAPGKGLEWVSFISGSSNYIHYADSVKGRFTISRDNAKNALYLQMNSLRAEDTAVYYCARDDGDYDWFDPWGQGTLVTVSS
VL: EIVLTQSPGTLSLSPGERATLSCRASQSVSSSYLAWYQQKPGQAPRLLIYGTSSRATGIPDRFSGSGSGTDFTLTISRLEPEDFAVYYCQQYDNSYTFGQGTKLEIK
B4: H2M1934N (antibody, mouse IgG2, V domains shown)
VH: EVQLVQSGGGLVKPGGSLRLSCAASGFTFSNFNMNWVRQAPGKGLEWVSFISSLSTYTYYADSVKGRFTISRDNAKNSLYLQMNSLRAEDTAVYYCARDDGDHDWFDPWGQGTLVTVSS
VL: EIVLTQSPDTLSLSPGERATLSCRASQSVSSNYLAWYQQKPGQAPRLLIYSASNRATGIPDRFSGSGSGTDFTLTISRLEPEDFAVYYCQQYDSSYTFGQGTKLEIK
B5: H1M1819N (antibody, V domains shown)
VH: EVQLVESGGGVVRPGGSLRLSCAASGFTFDDYAMHWVRQAPGKGLEWVAGISWNSGSIDYADSVKGRFTISRDNAKNSLYLQMNSLRAGDTALYYCAKDILDLDYYGLDVWGQGTTVTVSS
VL: DIQMTQSPSSLSASVGDRVTITCRASQDISSYLAWYQQKPGKVPNLLIYDASSLQSGVPSRFSGSGSGTDFTLTLSSLQPEDFASYYCQNYNSAPYTFGQGTKLEIK
B6: H2M1936N (antibody, mouse IgG2, V domains shown)
VH: EMQLVESGGGLVQPDRSLRLSCAASGFNFDNYAIHWVRQAPGKGLEWVSGISWNSGNIGYADSVKGRFTISRDNAKNSLFLLMNSLRPDDSALYYCTRGYNWNALSPMDVWGQGTTVTVSS
VL: DIQMTQSPSSLSASVGDRVTVTCRASQGISNYLAWYQQKPGKVPKLLIYAASTLQSGVPSRFSGSGSGTDFTLTISSLQPEDVASYYCQNYNSAPMTFGQGTKVEIK
B7: H2M1821N (antibody, mouse IgG2, V domains shown)
VH: EVQLVESGGGLVQPGRSLRLSCAASGFTFDDYAMHWVRQAPGKGLEWVSSISWNSGSIGYADSVKGRFTISRDNAKNSLYLQMNSLKPEDTALYYCTKDTDYGDYLDAFDIWGQGTMVAVAS
VL: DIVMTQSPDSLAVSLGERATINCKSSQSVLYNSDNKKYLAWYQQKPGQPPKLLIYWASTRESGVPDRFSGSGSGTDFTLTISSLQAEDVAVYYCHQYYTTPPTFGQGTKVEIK
B8: H1M1940N (antibody, V domains shown)
VH: QVQVVESGGGVVQPGRSLRLSCAASGFTFSDYGMHWVRQAPGKGLEWVAIISYDGSNKYYADSVKGRFTVSRDNSKNTLYLQLDSLRPEDAAVFYCAREGAFNLDYYAMDVWGQGTTVTVSS
VL: AIQMTQSPSSLSASVGDRVTITCRASQDIRNDLGWYQQKPGKAPNLLIYAASSLQSGVPSRFSGSGSGTDFTLTISSLQPEDFATYYCLQDSNYPLTFGGGTKVEIK
B9: H1M1828N (antibody, V domains shown)
VH: EVQLVESGGGLVQPGRSLRLSCAASGFTFDDYAMYWVRQAPGKGLEWVSGISWNSGSIGYADSVKGRFTISRDNAKNSLYLQMDSLRAEDTALYYCARDMMEVDLYGMDVWGQGTTVTVSS
VL: DIQMTQSPSSVSASVGDRVTITCRASQDISSWLAWYQQKPGTAPKFLIYETSSLQSGVPSRFSGSGSGTDFILTISSLQPEDFATYYCQQTDSFPHTFGQGTKLEIR
B10: H2M1824N (antibody, mouse IgG2, V domains shown)
VH: EVQLVESGGGVVRPGGSLRLSCAASGFTFDDYGMSWVRQAPGKGLECVSGINWNGGSTDYADSVKGRFTISRDNAKNSLYLQMNSLRAEDTASYYCARDGGDWDYFDLWGRGTLVTVSS
VL: EIVMTQSPATLSVSPGERATLSCRASQSVSSNLAWYQQKPGQAPRLLIYGASTRATGIPARFSGSGSGTEFTLTISSLQSEDFAVYFCQEYNDWPLTFGGGTKVEIK
B11: H2M1827N (antibody, mouse IgG2, V domains shown)
VH: EVQLVESGGGVVRPGGSLRLSCAASGFTFDDYGMSWVRQAPGKGLECVSGISWNGGNTDYADSVKGRFTISRDNAKNSLYLQMNSLRAEDTALYHCARDGGDWDYFDLWGRGTLVTVSS
VL: EILMTQSPATLSVSPGERATLSCRASQSVSSNLAWYQQKPGQAPRLLIYGASTRATGIPARFSGSGSGTEFTLTISSLQSEDFAIYYCQEYNDWPLTFGGGTKVEIK
B12: H2M1829N (antibody, mouse IgG2, V domains shown)
VH: EVQLVESGGGVVRPGGSLRLSCVASGFTFDDYGMSWVRQAPGKGLECVSGINWNGGSTDYADSVKGRFTISRDNAKNSLYLQMNSLRAEDTALYHCARDGGDWDYFDLWGRGTLVTVSS
VL: EILMTQSPATLSVSPGERATLSCRASQSVSSNLAWYQQKPGQAPRLLIYGASTRATGIPARFSGSGSGTEFTLTISSLQSEDFAIYYCQEYNDWPLTFGGGTKVEIK
B13: H2M1937N (antibody, mouse IgG2, V domains shown)
VH: QVQLQQWDAGLLKPSETLSLTCAVYGGSFSSYYWSWIRQPPGKGLEWIGEINHRGSTNYNPSLKSRVTISVDTSKNQFSLKLRSVTAADTAVYYCARGGVAARPDWHFFDYWGQGTLVTVSS
VL: DIQMTQSPSSLSASVGDRVTITCRASQVIRNDLGWFQQRPGKAPKRLIYAASSLQSEVPSRFSGSGSGTEFTLTITSLQPEDFATYYCLQHNSYPLTFGQGTRLEIK

One test addresses T1, ErbB3-mFc. In words: blocking ELISA: antibody (0-50 nM) + 50 pM ErbB3-mFc, binding to coated neuregulin1b. The text has this:
To further characterize anti-hErbB3 mAbs of the present invention, their ability to block ligand binding was examined via ELISA. […] Plates were washed and non-sequestered (plate bound) ErbB3 was detected with an anti-Fc poly conjugated with horseradish peroxidase (HRP). Plates were developed with TMB (3,3′,5,5′-tetramethylbenzidine) and neutralized with sulfuric acid before reading absorbance at 450 nm on a Victor X5 plate reader. Data analysis used a sigmoidal dose-response model within Prism™ software. […] Maximal blocking for each antibody was calculated by taking the difference in absorbance from zero to 50 nM antibody on the inhibition curve, divided by the difference in absorbance from 50 pM to zero ErbB3 on the dose curve.
Background: In an ELISA, binding on a coated surface is turned into a signal by an enzyme label.
The term IC50 denotes the midpoint of a concentration-inhibition curve. On to B1, for which the half-inhibitory concentration (IC50) turned out to be 0.0664 nM and the “Maximal Blocking (%)” value was 99%.

The next test deals with ErbB3 (cell surface, on MCF-7, DU145, A431 and MCF7 cells) (human, UniProt P21860 20-1342). In words: cell-based or functional assay.
Consider B2, for which the “Percent inhibition of Akt phosphorylation, 0.01 µg/ml ErbB3 antibody, DU145 cells + 0.5 nM NRG1” value was determined as 40%; the “Percent inhibition of Akt phosphorylation, 0.1 µg/ml ErbB3 antibody, DU145 cells + 0.5 nM NRG1” value worked out at 63%; the “Percent inhibition of Akt phosphorylation, 0.5 µg/ml ErbB3 antibody, DU145 cells + 0.5 nM NRG1” value came out at 74%.
For the molecule B3, the “Percent inhibition of Akt phosphorylation, 0.01 µg/ml ErbB3 antibody, DU145 cells + 0.5 nM NRG1” value was determined as 39%; the “Percent inhibition of Akt phosphorylation, 0.1 µg/ml ErbB3 antibody, DU145 cells + 0.5 nM NRG1” value came to 64%; the “Percent inhibition of Akt phosphorylation, 0.5 µg/ml ErbB3 antibody, DU145 cells + 0.5 nM NRG1” value was 66%.
For B4, in that order: 20%, 56% and 67%.
For B5, in that order: 29%, 72% and 75%.
The matching figures for B6: 6%, 30% and 67%.
As to B7, the “Percent inhibition of Akt phosphorylation, 0.01 µg/ml ErbB3 antibody, DU145 cells + 0.5 nM NRG1” value worked out at 11%; the “Percent inhibition of Akt phosphorylation, 0.1 µg/ml ErbB3 antibody, DU145 cells + 0.5 nM NRG1” value is 68%; the “Percent inhibition of Akt phosphorylation, 0.5 µg/ml ErbB3 antibody, DU145 cells + 0.5 nM NRG1” value worked out at 73%.
The matching figures for B8: 13%, 50% and 68%.
For B9, in that order: 22%, 66% and 75%.
For B10, in that order: 25%, 63% and 74%.
Regarding B11, the “Percent inhibition of Akt phosphorylation, 0.01 µg/ml ErbB3 antibody, DU145 cells + 0.5 nM NRG1” value came to 16%; the “Percent inhibition of Akt phosphorylation, 0.1 µg/ml ErbB3 antibody, DU145 cells + 0.5 nM NRG1” value amounted to 73%; the “Percent inhibition of Akt phosphorylation, 0.5 µg/ml ErbB3 antibody, DU145 cells + 0.5 nM NRG1” value was 75%.
For B12, in that order: 22%, 74% and 74%.
With B13, the “Percent inhibition of Akt phosphorylation, 0.01 µg/ml ErbB3 antibody, DU145 cells + 0.5 nM NRG1” value was -13%; the “Percent inhibition of Akt phosphorylation, 0.1 µg/ml ErbB3 antibody, DU145 cells + 0.5 nM NRG1” value worked out at 41%; the “Percent inhibition of Akt phosphorylation, 0.5 µg/ml ErbB3 antibody, DU145 cells + 0.5 nM NRG1” value came out at 71%.
